Laboratory results: patent US10830762 (dated 2020)
Substitutions are numbered along the chain they refer to. In names and notes the source's numbering stands. Each block holds one binder with its values, some of them ahead of it.

Tests used:
[1] = target: T1, DDB1 in DF15R cell extracts (UniProt Q16531 2-1140); experiment: immunoprecipitation and Western blot from DF15R cell extracts (FIG. 24C)
T1 construct: Co-immunoprecipitated with FLAG-tagged CRBN proteins from cell extracts

full-length human GSPT1 = target: T2, full-length human GSPT1 (human, UniProt P15170 1-499); experiment: CRBN immunoprecipitation in the presence of vehicle or Compound C (FIG. 34A)
T2 construct: mature; limits unknown; also called hGSPT1
T2 sequence (P15170 other isoform, or with tags, fused parts or gaps limits assumed): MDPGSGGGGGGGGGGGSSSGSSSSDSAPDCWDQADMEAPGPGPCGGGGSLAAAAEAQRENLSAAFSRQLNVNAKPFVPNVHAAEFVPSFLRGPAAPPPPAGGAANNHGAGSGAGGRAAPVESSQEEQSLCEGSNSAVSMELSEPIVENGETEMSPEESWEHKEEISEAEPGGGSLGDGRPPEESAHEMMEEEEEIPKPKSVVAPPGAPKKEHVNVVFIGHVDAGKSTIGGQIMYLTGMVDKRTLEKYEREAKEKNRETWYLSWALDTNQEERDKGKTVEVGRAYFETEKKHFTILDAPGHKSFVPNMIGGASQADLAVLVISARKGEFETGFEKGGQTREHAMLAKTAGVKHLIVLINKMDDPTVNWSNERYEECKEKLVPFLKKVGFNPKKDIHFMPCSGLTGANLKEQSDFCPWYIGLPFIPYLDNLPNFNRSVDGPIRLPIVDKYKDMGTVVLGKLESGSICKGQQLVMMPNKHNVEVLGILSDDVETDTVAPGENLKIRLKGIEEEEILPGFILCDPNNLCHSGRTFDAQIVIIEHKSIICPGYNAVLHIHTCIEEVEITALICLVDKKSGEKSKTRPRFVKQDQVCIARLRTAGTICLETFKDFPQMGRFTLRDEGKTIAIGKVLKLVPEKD

human GSPT1 G575N = target: T3, human GSPT1 G575N (human, UniProt P15170-3 139-637, limits assumed); experiment: Compound C-induced in vitro binding of GSPT1 to CRBN (FIG. 31C)
T3 construct: also called G575N mutation in GSPT1
T3 sequence (P15170 whole entry G437N): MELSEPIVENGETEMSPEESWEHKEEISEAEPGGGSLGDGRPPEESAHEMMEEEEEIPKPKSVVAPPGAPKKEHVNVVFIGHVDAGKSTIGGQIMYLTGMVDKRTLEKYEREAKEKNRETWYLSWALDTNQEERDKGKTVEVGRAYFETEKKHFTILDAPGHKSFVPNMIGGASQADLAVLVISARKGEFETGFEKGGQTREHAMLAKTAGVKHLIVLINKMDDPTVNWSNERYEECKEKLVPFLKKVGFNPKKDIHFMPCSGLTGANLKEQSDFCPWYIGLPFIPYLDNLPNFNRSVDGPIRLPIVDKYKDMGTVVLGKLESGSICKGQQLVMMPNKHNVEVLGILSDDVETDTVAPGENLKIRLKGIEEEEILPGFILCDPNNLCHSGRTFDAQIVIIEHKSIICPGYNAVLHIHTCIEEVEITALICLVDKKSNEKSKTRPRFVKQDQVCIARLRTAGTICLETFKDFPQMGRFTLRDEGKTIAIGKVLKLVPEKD

T1 sequence (Q16531 2-1140 limits assumed): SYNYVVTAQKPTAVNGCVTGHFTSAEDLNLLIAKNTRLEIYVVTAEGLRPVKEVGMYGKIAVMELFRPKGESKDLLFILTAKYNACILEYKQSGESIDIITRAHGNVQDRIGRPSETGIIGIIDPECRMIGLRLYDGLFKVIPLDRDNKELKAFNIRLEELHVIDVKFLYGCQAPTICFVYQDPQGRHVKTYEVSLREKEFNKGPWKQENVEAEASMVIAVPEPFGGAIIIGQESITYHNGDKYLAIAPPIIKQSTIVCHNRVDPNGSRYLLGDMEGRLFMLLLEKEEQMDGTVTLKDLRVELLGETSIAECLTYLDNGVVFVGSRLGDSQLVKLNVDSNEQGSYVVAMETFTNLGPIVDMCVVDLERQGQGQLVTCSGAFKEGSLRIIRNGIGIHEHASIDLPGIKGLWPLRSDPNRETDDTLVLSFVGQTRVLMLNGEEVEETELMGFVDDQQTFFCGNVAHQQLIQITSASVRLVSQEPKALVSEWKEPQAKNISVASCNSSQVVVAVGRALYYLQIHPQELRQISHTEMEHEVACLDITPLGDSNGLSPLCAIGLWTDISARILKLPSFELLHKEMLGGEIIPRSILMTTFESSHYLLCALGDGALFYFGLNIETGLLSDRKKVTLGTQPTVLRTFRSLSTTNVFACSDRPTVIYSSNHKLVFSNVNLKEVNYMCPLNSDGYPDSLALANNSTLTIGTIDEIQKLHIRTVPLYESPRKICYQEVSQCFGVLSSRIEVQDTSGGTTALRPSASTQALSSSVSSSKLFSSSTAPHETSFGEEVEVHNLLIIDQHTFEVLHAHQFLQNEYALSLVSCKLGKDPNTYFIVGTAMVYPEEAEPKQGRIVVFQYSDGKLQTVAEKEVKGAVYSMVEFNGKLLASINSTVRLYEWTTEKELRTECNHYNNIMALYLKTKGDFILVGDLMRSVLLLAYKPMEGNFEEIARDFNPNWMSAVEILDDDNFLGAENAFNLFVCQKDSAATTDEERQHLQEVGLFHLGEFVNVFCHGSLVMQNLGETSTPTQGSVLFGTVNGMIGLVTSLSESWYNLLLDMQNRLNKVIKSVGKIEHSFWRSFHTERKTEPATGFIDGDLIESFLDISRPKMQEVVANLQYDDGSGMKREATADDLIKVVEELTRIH

- binding result (human GSPT1 G575N): no binding
B3: human WT CRBN (other, UniProt Q96SW2 1-442, looked up)
chain: MAGEGDQQDAAHNMGNHLPLLPAESEEEDEMEVEDQDSKEAKKPNIINFDTSLPTSHTYLGADMEEFHGRTLHDDDSCQVIPVLPQVMMILIPGQTLPLQLFHPQEVSMVRNLIQKDRTFAVLAYSNVQEREAQFGTTAEIYAYREEQDFGIEIVKVKAIGRQRFKVLELRTQSDGIQQAKVQILPECVLPSTMSAVQLESLNKCQIFPSKPVSREDQCSYKWWQKYQKRKFHCANLTSWPRWLYSLYDAETLMDRIKKQLREWDENLKDDSLPSNPIDFSYRVAACLPIDDVLRIQLLKIGSAIQRLRCELDIMNKCTSLCCKQCQETEITTKNEIFSLSLCGPMAAYVNPHGYVHETLTVYKACNLNLIGRPSTEHSWFPGYAWTVAQCKICASHIGWKFTATKKDMSPQKFWGLTRSALLPTIPDTEDEISPDKVILCL
notes: also called cereblon; hCRBN

- binding result (full-length human GSPT1): no binding
B4: human CRBN E377V (other, UniProt Q96SW2 1-442, looked up)
chain: B3 chain with E377V

- binding result (full-length human GSPT1): no binding
B5: human CRBN E377A (other, UniProt Q96SW2 1-442, looked up)
chain: B3 chain with E377A

Further lines, the binder ahead of its results:

B1: full length CRBN W386A (CRBN^W386A), FLAG-tagged, re-expressed in DF15R cells (other, human, UniProt Q96SW2 1-442, looked up)
chain: B3 chain with W386A
notes: mature; not shown: FLAG tag
- binding result [1]: binds

B2: human CRBN H357A (other, UniProt Q96SW2 1-442, looked up)
chain: B3 chain with H357A
- binding result (full-length human GSPT1): no binding

B6: full length CRBN W400A (CRBN^W400A), FLAG-tagged, re-expressed in DF15R cells (other, human, UniProt Q96SW2 1-442, looked up)
chain: B3 chain with W400A
notes: mature; not shown: FLAG tag
- binding result [1]: binds
